From patent US8815527 (Stanford University, dated 2014)

What was measured:
[1] = target: p38 MAPK phosphorylated at Thr180/Tyr182; assay: flow cytometry, Jurkat T cells +Anisomycin; gate around the population with phospho-p38 stain about 15 to 100
[2] = target: AKT phosphorylated at Ser473; assay: flow cytometry, Jurkat T cells +PDGF, AKT+ gated; number stands under the right-hand population (ser473 stain about 50, thr308 stain about 50); one dotted box encloses both populations
[3] = target: T1, Leukocyte Function Antigen-1 (LFA-1) on the cell surface (human, UniProt P20701 26-1170; P05107 23-769); assay: flow cytometry, ICAM-2-FITC titration on Jurkat cells, single cell analysis
T1 construct: whole, on cells; also called CD11a/CD18; αLβ2
Protocol: Molecular weight was calculated using relative distance migration from a molecular weight standard. Concentration was determined using serial dilutions of BSA as a standard. […] Mean fluorescence intensity was plotted per time of a gated homogenous cell population. Flow rate was maintained at 200-300 cells/second, with fluorescence intensity values acquired at 10 millisecond intervals for 1200 seconds. […] Cells were washed 1×, and analyzed for mean fluorescent intensity (MFI) of 10^4 cells. […] Values were fit to the equation Y=m1*M0/(m2+M0) (see materials and methods).

[4] = target: T1, Leukocyte Function Antigen-1 (LFA-1) on …; assay: cell-based or functional assay
[5] = target: β4 integrin (NIH3T3-derived cells) (UniProt A2A863 29-1818, limits assumed); assay: two-column affinity chromatography (ICAM-2 solid support, then streptavidin-agarose) and immunoblot
ezrin in NIH3T3 cells = ezrin in NIH3T3 cells (UniProt P26040 1-586); assay: co-immunoprecipitation (IP ICAM-2, immunoblot ezrin) from transduced NIH3T3 cells
Text: Control lysates were not subjected to immunoprecipitation and reflect positive controls for detected interacting protein. […] Phosphotransfer of ATP to peptide substrate was detected by scintillation counting and presented as counts per minute CPM.

T1 sequence (P20701 26-1170, chain 1 of 2): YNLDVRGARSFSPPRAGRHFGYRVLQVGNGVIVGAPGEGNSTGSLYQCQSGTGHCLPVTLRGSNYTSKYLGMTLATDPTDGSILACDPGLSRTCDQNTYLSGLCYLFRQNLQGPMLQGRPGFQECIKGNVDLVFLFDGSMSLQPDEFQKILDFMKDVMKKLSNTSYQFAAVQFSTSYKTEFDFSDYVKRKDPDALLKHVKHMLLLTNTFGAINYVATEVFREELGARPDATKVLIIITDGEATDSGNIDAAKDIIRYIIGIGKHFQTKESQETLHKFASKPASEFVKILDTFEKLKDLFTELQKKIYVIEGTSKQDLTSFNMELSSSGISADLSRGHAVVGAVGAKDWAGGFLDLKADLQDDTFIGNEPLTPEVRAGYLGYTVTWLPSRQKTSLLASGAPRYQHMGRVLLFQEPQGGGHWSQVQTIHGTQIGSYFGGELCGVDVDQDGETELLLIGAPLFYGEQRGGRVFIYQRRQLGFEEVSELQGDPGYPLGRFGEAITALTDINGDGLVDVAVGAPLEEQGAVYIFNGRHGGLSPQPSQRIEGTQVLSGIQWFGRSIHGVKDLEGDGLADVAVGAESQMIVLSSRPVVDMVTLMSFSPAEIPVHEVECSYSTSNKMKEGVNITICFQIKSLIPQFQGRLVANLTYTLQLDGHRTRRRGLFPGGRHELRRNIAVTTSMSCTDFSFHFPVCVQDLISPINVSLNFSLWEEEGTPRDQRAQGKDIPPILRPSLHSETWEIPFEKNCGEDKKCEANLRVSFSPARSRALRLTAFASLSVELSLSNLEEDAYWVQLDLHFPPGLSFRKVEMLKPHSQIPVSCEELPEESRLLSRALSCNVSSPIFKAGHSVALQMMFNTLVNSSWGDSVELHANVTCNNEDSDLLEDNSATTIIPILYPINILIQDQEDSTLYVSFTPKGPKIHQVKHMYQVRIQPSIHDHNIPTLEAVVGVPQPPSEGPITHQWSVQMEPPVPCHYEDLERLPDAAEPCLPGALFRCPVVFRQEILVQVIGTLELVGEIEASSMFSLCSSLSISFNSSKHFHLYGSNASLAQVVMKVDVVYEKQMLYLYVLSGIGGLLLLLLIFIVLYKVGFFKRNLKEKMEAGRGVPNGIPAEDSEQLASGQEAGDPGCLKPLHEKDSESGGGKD
T1 sequence (P05107 23-769, chain 2 of 2): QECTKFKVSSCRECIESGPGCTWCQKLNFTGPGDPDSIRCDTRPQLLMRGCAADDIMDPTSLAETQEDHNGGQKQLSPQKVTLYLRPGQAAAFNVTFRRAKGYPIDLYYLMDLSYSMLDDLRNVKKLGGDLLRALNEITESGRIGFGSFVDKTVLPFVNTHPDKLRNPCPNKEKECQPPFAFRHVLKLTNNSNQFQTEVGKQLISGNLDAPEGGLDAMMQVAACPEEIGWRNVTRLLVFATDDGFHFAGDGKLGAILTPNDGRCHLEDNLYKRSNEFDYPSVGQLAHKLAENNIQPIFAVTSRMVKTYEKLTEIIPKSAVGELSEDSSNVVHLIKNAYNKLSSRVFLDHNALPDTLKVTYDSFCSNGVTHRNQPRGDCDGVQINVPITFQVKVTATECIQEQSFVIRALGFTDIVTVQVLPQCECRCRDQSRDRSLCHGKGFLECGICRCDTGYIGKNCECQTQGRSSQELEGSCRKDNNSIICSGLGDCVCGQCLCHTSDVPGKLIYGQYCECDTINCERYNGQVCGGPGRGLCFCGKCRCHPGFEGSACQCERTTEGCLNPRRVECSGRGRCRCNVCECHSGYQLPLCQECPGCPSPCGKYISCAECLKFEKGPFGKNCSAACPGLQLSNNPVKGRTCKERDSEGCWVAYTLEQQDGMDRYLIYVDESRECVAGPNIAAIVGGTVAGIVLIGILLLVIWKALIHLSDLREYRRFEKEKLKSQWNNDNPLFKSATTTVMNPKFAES
Sequence of ezrin in NIH3T3 cells (P26040 whole entry): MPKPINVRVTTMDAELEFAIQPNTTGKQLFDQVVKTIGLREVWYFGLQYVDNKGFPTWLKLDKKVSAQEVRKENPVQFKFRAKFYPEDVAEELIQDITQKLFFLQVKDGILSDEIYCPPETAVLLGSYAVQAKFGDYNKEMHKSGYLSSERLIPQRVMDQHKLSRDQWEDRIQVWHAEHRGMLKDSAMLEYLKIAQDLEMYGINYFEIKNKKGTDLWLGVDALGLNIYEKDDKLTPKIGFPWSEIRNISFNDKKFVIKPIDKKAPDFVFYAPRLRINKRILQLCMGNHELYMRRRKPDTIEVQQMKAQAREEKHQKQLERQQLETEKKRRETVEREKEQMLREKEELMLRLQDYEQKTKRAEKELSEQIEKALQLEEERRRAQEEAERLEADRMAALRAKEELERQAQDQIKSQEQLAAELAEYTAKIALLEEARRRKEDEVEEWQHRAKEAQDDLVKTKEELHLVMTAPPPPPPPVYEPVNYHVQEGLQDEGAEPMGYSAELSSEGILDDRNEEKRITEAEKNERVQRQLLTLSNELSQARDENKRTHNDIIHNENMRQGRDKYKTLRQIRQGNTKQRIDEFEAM
Sequence of β4 integrin (NIH3T3-derived cells) (A2A863 29-1818 limits assumed): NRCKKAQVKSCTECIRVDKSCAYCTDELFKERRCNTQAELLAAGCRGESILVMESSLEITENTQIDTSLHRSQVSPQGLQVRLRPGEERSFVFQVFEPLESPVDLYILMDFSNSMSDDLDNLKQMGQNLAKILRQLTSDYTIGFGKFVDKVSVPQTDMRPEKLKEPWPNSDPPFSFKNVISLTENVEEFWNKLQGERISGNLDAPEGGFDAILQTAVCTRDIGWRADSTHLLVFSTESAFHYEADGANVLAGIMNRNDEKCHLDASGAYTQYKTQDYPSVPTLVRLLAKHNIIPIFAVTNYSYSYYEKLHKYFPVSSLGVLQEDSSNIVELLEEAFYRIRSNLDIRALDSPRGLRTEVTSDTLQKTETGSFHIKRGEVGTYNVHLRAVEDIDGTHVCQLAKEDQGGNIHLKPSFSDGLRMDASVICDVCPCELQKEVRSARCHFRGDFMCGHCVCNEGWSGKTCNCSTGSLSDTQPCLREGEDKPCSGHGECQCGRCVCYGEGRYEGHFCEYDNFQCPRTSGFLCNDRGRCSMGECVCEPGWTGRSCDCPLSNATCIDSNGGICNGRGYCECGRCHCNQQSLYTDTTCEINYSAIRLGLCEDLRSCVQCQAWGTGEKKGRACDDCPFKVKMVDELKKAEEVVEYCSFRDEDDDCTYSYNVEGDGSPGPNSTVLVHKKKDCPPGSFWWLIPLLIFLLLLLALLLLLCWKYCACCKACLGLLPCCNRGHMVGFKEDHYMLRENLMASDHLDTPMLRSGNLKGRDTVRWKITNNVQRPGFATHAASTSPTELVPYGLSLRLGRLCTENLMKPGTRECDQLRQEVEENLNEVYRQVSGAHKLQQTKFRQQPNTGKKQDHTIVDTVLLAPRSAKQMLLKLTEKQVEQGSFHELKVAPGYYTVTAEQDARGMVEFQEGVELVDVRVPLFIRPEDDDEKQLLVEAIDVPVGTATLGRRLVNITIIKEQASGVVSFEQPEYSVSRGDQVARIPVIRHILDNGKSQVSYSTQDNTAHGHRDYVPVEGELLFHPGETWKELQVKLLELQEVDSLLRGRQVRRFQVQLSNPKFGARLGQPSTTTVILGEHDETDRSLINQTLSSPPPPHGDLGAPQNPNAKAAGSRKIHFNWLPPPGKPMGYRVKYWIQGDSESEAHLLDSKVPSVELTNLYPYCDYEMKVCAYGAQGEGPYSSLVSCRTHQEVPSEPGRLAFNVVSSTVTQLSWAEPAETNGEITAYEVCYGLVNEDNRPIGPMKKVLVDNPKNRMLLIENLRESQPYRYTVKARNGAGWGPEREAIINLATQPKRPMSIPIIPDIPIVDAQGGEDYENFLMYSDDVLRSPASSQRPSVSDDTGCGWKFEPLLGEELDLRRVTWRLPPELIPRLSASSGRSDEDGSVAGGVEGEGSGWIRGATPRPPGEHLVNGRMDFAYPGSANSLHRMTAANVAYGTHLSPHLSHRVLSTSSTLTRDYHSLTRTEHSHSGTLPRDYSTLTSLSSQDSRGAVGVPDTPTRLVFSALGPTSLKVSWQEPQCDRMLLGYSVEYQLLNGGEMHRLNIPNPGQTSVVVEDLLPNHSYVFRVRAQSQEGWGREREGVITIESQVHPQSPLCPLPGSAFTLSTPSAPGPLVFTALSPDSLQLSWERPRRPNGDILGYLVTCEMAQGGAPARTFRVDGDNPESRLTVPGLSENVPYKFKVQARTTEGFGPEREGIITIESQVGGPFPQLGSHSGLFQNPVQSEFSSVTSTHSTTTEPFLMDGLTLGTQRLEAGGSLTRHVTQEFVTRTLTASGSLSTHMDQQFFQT

phospho-p38 MAP kinase (Thr180/Tyr182) monoclonal antibody 28B10
percent of cells in the drawn gate (number printed beside the gate) [1]: 13.3

phospho-AKT Ser473 monoclonal antibody 4E2
percent of gated cells (number printed below the gate) [2]: 43.9

B1: soluble human ICAM-2 protein, biochemically purified from retrovirally transduced NIH3T3 cells (ligand, UniProt P13598 25-275, looked up)
chain: KVFEVHVRPKKLAVEPKGSLEVNCSTTCNQPEVGGLETSLDKILLDEQAQWKHYLVSNISHDTVLQCHFTCSGKQESMNSNVSVYQPPRQVILTLQPTLVAVGKSFTIECRVPTVEPLDSLTLFLFRGNETLHYETFGKAAPAPQEATATFNSTADREDGHRNFSCLAVLDLMSRGGNIFHKHSAPKMLEIYEPVSDSQMVIIVTVVSVLLSLFVTSVLLCFIFGQHLRQQRMGTYGVRAAWRRLPQAFRP
modifications: FITC (NHS-fluorescein) conjugate where used as ICAM-2-FITC, sites not stated
notes: mature; also called sICAM-2; soluble ICAM-2
Kd [3]: 217 nM
stimulus needed for similar expression of CD69 and CD25 on naive CD4+ T cells, 6 hr [4]: 10000 fold
binding result [5]: no binding

B2: human ICAM-2, full length, in cells (receptor, UniProt P13598 25-275, looked up)
chain: KVFEVHVRPKKLAVEPKGSLEVNCSTTCNQPEVGGLETSLDKILLDEQAQWKHYLVSNISHDTVLQCHFTCSGKQESMNSNVSVYQPPRQVILTLQPTLVAVGKSFTIECRVPTVEPLDSLTLFLFRGNETLHYETFGKAAPAPQEATATFNSTADREDGHRNFSCLAVLDLMSRGGNIFHKHSAPKMLEIYEPVSDSQMVIIVTVVSVLLSLFVTSVLLCFIFGQHLRQQRMGTYGVRAAWRRLPQAFRP
notes: whole, on cells; Used in co-immunoprecipitations from cell lysates, FACS staining and cell mixing assays; also called ICAM-2 cells; CD102
binding result (ezrin in NIH3T3 cells): binds
